Test results from publication PMC10786891, “Massively parallel profiling of RNA-targeting CRISPR-Cas13d”.

Molecular target: T1, EsCas13d, nuclease-dead (Eubacterium siraeum, UniProt B0MS50, R295A;H300A;R849A;H854A)
T1 sequence: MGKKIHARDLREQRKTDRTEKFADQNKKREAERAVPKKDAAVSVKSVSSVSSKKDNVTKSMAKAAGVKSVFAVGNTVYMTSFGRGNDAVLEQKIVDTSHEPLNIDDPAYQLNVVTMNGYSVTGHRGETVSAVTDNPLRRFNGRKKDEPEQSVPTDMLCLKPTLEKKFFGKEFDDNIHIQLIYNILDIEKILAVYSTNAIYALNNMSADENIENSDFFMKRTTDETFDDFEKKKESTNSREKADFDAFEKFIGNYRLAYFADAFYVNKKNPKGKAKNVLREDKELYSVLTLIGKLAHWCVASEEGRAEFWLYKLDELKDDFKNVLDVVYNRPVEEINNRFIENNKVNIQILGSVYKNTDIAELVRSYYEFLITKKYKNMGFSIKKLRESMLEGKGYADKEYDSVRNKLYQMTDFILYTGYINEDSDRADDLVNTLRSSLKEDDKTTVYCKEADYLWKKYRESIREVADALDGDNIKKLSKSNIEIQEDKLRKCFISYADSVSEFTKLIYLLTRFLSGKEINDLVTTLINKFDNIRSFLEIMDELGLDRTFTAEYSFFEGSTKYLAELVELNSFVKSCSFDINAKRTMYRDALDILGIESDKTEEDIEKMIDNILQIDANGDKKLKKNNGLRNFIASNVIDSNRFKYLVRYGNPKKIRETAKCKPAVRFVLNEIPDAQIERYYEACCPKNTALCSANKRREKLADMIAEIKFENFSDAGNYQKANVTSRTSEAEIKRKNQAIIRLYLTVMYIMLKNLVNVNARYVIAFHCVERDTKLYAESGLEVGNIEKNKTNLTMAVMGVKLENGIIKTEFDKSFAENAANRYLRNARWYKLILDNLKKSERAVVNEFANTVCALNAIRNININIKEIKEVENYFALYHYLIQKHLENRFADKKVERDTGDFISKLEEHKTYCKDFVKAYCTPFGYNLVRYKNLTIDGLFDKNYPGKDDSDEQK
Assay: crRNA (strand 1, pre-loaded); Mg2+; 40 mM Tris-HCl pH 7.5, 150 mM NaCl, 6 mM MgCl2, 1 mM DTT, 0.1% Tween-20, 0.2 mg/ml BSA; 25 C; 10 min per concentration, then washed
Conditions: tags: His6-TwinStrep-SUMO cleaved; N-terminal SNAP kept (SNAP-Surface 488); label: 3' end held by stalled T7 RNA polymerase

| Binder | Kd [nM] |
| --- | --- |
| target 1 A1U,A16C (mixed) RNA 1: CACCCGUGCAAAAAUGCAGGGGUCUAAAACUGAGCGGAUAACCUCUCUAUGG RNA 2: GGGAAUGGAUCCACAUCUACGAAUUCGUACCAUAGCGAGGUUAUCCGCUCUCCGAGAUCGGAAGAGCACACGU | 37 ± 4 |
| target 1 U3A,C4G (mixed) RNA 1: CACCCGUGCAAAAAUGCAGGGGUCUAAAACUGAGCGGAUAACCUCUCUAUGG RNA 2: GGGAAUGGAUCCACAUCUACGAAUUCGUACCAUAGAGAGGUUAUCCGGACACCGAGAUCGGAAGAGCACACGU | 5.74 ± 0.33 |
| target 1 G12A,A14G (mixed) RNA 1: CACCCGUGCAAAAAUGCAGGGGUCUAAAACUGAGCGGAUAACCUCUCUAUGG RNA 2: GGGAAUGGAUCCACAUCUACGAAUUCGUACCAUAGAGGGAUUAUCCGCUCACCGAGAUCGGAAGAGCACACGU | 41 ± 6 |
| target 1 complement block 4-8 (mixed) RNA 1: CACCCGUGCAAAAAUGCAGGGGUCUAAAACUGAGCGGAUAACCUCUCUAUGG RNA 2: GGGAAUGGAUCCACAUCUACGAAUUCGUACCAUAGAGAGGUUAAGGCGUCACCGAGAUCGGAAGAGCACACGU | 9.57 ± 0.27 |
| target 1 insU 3' of 1,insC 3' of 1 (mixed) RNA 1: CACCCGUGCAAAAAUGCAGGGGUCUAAAACUGAGCGGAUAACCUCUCUAUGG RNA 2: GGGAAUGGAUCCACAUCUACGAAUUCGUACCAUAGAGAGGUUAUCCGCUCAUCCCGAGAUCGGAAGAGCACACGU | 11.6 ± 0.6 |
| target 1 insA 3' of 12,insA 3' of 10 (mixed) RNA 1: CACCCGUGCAAAAAUGCAGGGGUCUAAAACUGAGCGGAUAACCUCUCUAUGG RNA 2: GGGAAUGGAUCCACAUCUACGAAUUCGUACCAUAGAGAGGAUUAAUCCGCUCACCGAGAUCGGAAGAGCACACGU | 32 ± 7 |
| target 1 insA 3' of 22,insC 3' of 11 (mixed) RNA 1: CACCCGUGCAAAAAUGCAGGGGUCUAAAACUGAGCGGAUAACCUCUCUAUGG RNA 2: GGGAAUGGAUCCACAUCUACGAAUUCGUACACAUAGAGAGGUCUAUCCGCUCACCGAGAUCGGAAGAGCACACGU | 60 ± 19 |
| target 1 del12,del13 (mixed) RNA 1: CACCCGUGCAAAAAUGCAGGGGUCUAAAACUGAGCGGAUAACCUCUCUAUGG RNA 2: GGGAAUGGAUCCACAUCUACGAAUUCGUACCAUAGAGAUUAUCCGCUCACCGAGAUCGGAAGAGCACACGU | 18.6 ± 1.8 |
| target 1 G17U,C21A (mixed) RNA 1: CACCCGUGCAAAAAUGCAGGGGUCUAAAACUGAGCGGAUAACCUCUCUAUGG RNA 2: GGGAAUGGAUCCACAUCUACGAAUUCGUACAAUAUAGAGGUUAUCCGCUCACCGAGAUCGGAAGAGCACACGU | 40 ± 7 |
| target 1 insG 3' of 22,insU 3' of 1 (mixed) RNA 1: CACCCGUGCAAAAAUGCAGGGGUCUAAAACUGAGCGGAUAACCUCUCUAUGG RNA 2: GGGAAUGGAUCCACAUCUACGAAUUCGUACGCAUAGAGAGGUUAUCCGCUCAUCCGAGAUCGGAAGAGCACACGU | 31 ± 4 |
| target 1 insG 3' of 20,insU 3' of 2 (mixed) RNA 1: CACCCGUGCAAAAAUGCAGGGGUCUAAAACUGAGCGGAUAACCUCUCUAUGG RNA 2: GGGAAUGGAUCCACAUCUACGAAUUCGUACCAGUAGAGAGGUUAUCCGCUCUACCGAGAUCGGAAGAGCACACGU | ~60 |
| target 1 U8C,A16C (mixed) RNA 1: CACCCGUGCAAAAAUGCAGGGGUCUAAAACUGAGCGGAUAACCUCUCUAUGG RNA 2: GGGAAUGGAUCCACAUCUACGAAUUCGUACCAUAGCGAGGUUACCCGCUCACCGAGAUCGGAAGAGCACACGU | 77 ± 5 |
| target 1 C22A (mixed) RNA 1: CACCCGUGCAAAAAUGCAGGGGUCUAAAACUGAGCGGAUAACCUCUCUAUGG RNA 2: GGGAAUGGAUCCACAUCUACGAAUUCGUAACAUAGAGAGGUUAUCCGCUCACCGAGAUCGGAAGAGCACACGU | 13.5 ± 0.7 |
